The chains are these.
B1: IIICS, variably-spliced domain of fibronectin (other, human)
chain: MGSDELPQLVTLPHPNLHGPEILDVPSTVQKTPFVTHPGYDTGNGIQLPGTSGQQPSVGQQMIFEEHGFRRTTPPTTATPIRHRPRPYPPNVGEEIQIGHIPREDVDYHLYPHGPGLNPNASTTSHHHHHHC
notes: domain: IIICS; The IIICS construct is not described separately
B2: peptide 3 NGQTPIQRTIKPDVRSYTITGLQPGT (peptide)
peptide: NGQTPIQRTIKPDVRSYTITGLQPGT
notes: also called P3; FN1852-877 (so in the source)
B3: EGF (ligand, UniProt P01133 971-1023, looked up)
chain: NSDSECPLSHDGYCLHDGVCMYIEALDKYACNCVVGYIGERCQYRDLKWWELR
B4: peptide 1 (FN634-658) QPSHISKYILRWRPKNSVGRWKEAT (peptide)
peptide: QPSHISKYILRWRPKNSVGRWKEAT
notes: A Cys-tagged form was used in the FN-null cell assay; also called P1

The target in experiment [1] is T1, intact human plasma fibronectin (FN) (human, UniProt P02751 32-2477).
T1 construct: Adsorbed to plastic or coupled to agarose beads in the assays; The background calls plasma FN a disulfide-linked dimer; also called intact FN
T1 sequence (P02751 other isoform, or with tags, fused parts or gaps limits assumed): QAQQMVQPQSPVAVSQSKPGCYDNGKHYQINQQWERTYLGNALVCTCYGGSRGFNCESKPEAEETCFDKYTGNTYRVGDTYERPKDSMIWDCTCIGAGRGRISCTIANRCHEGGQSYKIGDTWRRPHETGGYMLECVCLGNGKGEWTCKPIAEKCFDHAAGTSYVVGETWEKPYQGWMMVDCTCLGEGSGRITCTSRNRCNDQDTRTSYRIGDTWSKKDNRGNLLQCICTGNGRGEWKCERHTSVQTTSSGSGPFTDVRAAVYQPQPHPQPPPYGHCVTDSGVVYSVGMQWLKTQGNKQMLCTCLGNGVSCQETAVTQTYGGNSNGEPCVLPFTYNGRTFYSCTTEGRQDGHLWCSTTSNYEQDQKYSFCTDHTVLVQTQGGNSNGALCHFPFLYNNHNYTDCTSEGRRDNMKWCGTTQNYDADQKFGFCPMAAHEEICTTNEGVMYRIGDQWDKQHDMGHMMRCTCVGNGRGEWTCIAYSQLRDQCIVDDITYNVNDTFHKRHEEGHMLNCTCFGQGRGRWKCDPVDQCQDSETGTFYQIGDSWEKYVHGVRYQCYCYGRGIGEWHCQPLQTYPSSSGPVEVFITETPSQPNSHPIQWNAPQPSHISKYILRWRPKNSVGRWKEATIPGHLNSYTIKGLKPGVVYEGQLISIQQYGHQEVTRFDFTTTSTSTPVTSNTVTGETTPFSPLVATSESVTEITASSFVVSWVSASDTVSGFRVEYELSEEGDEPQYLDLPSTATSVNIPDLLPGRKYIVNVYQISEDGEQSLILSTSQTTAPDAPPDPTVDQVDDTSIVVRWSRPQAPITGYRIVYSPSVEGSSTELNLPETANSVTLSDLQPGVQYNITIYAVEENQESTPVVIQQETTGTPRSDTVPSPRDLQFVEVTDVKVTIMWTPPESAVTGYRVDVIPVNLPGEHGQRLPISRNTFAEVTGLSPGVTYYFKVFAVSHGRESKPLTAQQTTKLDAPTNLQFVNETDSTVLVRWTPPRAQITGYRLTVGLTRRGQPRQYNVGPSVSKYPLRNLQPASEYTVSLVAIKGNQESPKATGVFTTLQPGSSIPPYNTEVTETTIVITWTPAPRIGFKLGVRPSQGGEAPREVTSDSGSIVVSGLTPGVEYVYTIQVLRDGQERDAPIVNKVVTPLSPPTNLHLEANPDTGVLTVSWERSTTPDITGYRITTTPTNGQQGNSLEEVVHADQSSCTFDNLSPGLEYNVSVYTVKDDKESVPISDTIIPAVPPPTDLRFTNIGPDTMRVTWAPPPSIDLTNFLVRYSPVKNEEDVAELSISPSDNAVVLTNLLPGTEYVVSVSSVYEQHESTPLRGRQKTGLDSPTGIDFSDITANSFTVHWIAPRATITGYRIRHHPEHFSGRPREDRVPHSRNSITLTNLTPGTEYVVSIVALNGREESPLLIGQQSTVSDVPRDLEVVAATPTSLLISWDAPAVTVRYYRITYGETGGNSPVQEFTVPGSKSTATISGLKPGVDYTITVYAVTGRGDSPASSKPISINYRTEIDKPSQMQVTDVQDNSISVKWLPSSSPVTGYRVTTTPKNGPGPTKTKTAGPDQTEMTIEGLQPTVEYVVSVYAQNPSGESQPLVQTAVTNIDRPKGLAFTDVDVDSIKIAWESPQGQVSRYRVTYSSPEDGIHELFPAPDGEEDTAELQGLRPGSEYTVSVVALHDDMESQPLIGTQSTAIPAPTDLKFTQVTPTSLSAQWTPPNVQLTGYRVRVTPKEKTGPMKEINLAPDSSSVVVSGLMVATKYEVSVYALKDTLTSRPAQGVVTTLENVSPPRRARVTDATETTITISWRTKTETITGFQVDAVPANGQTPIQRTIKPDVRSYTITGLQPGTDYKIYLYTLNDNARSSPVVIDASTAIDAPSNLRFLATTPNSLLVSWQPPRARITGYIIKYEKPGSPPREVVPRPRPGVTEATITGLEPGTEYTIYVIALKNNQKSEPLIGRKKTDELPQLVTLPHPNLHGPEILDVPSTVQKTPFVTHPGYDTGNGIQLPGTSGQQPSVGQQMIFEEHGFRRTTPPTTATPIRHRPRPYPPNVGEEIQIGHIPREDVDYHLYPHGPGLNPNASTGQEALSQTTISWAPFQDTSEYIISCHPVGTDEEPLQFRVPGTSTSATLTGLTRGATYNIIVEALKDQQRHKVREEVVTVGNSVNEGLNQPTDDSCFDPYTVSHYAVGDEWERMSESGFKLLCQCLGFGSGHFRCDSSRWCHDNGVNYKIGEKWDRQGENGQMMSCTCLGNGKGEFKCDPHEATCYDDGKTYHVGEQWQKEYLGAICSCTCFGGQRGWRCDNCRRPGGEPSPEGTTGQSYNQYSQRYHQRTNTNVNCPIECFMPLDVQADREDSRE
Briefly: competition: I-125 TGF-β1 bound to intact human plasma FN adsorbed on plastic (0.125 µM, blocked with 2% BSA), 25°C, 2 h, with rising peptide; % of binding without peptide, n=3 [left panel]. The method, then: (§1) Figure 9: FIG. 9. Inhibition of TGF-β1 and PDGF-BB binding to intact human plasma FN with TGF-β1 and PDGF-BB FN-binding peptides, respectively. FN was adsorbed onto tissue culture plastic at a concentration of 0.125 μM and then excess protein-binding sites of the plastic blocked with 2% bovine serum albumin. Growth factor labeled with I^125 was incubated with FN-coated plates at 25° C. for 2 hours in the presence or absence of peptide. Data was calculated as [(GF binding in presence of peptide–background)/(GF binding in absence of peptide-background)]×100. n=3.
(§2) Two of these synthetic peptides (homologous to TGF-β1 and homologous to PDGF-BB) inhibit TGF-β1 and PDGF-BB binding to FN respectively (FIG. 9). Inhibition of TGF-β1 and PDGF-BB binding to intact human plasma FN was determined as follows. FN was adsorbed onto tissue culture plastic at a concentration of 0.125 μM and then excess protein-binding sites of the plastic blocked with 2% bovine serum albumin. Growth factor labeled with I^125 was incubated with FN-coated plates at 25° C. for 2 hours in the presence or absence of peptide. For example, relative binding of TGF-β1 to immobilized FN was determined for increasing concentrations of the synthetic peptide homologous to TGF-β1. […] For example, relative binding of PDGF-BB to immobilized FN was determined for increasing concentrations of the synthetic peptide homologous to PDGF-BB. […]

The target of experiment [2] is FGF-1 (UniProt P05230 16-155, limits assumed). The experiment in a line: equilibrium and kinetic binding.
Sequence of FGF-1 (P05230 16-155 limits assumed): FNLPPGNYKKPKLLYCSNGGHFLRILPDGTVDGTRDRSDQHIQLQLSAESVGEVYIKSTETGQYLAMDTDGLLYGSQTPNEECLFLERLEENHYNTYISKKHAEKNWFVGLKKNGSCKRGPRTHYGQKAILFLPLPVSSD
Experiment [3] addresses T2, basic fibroblast growth factor (bFGF, FGF-2) (human, UniProt P09038 143-288, limits assumed). The experiment in a line: method not restated in the sentence.
Experiment [4] concerns the target T2, basic fibroblast growth factor (bFGF, …). Briefly: equilibrium or kinetic binding, not said which.
For experiment [5], the target named is B3. Briefly: equilibrium and kinetic binding.
For experiment [6], the target named is TGF-α (UniProt P01135 40-89). Briefly: equilibrium and kinetic binding.
Sequence of TGF-α (P01135 40-89 limits assumed): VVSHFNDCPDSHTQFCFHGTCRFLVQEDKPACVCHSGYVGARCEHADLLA
Experiment [7] addresses T2, basic fibroblast growth factor (bFGF, …). The experiment in a line: peptide binding to the GF.
Experiment [8] addresses T3, FNIII12-V15 (HV), composite heparinII-binding and variably-spliced IIICS domains of fibronectin (human, UniProt P02751 1812-2288).
T3 construct: domain: FNIII12-V15; Recombinant, from E. coli; Some constructs carry GST at the C-terminus
The experiment in a line: plasmon resonance modulation.

In experiment [9] the target is T4, FNIII8-11 (C), classic cell-binding domain of fibronectin containing RGD (human, UniProt P02751 1358-1721).
T4 construct: domain: FNIII8-11; Recombinant
T4 sequence (P02751 other isoform, or with tags, fused parts or gaps limits assumed): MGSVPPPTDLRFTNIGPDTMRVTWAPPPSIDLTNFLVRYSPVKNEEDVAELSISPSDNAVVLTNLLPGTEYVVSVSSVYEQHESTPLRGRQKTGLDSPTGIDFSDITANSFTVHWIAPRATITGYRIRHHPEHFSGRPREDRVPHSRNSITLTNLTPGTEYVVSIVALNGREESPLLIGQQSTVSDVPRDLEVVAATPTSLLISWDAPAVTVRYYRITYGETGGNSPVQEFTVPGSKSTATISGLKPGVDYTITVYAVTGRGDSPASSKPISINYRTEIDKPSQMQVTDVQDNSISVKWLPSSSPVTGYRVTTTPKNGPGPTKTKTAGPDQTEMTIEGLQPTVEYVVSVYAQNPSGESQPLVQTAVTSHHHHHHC
Briefly: equilibrium and kinetic binding.

Experiment [10] addresses T5, FNIII3-6 (human, UniProt P02751 813-1175, limits assumed).
T5 construct: domain: FNIII3-6; Recombinant; also called FNII3-6 [sic]
The experiment in a line: equilibrium and kinetic binding.

In experiment [11] the target is T6, FNIII1-7 (human, UniProt P02751 610-1266, limits assumed).
T6 construct: domain: FNIII1-7; This construct is not described separately
The experiment in a line: equilibrium and kinetic binding.

Experiment [12] deals with T7, FN70, the 70 kDa amino terminus of fibronectin (UniProt P02751 32-608, limits assumed).
T7 construct: domain: FN70 (70 kDa amino terminus); also called amino-terminal end of FN
T7 sequence (P02751 32-608 limits assumed): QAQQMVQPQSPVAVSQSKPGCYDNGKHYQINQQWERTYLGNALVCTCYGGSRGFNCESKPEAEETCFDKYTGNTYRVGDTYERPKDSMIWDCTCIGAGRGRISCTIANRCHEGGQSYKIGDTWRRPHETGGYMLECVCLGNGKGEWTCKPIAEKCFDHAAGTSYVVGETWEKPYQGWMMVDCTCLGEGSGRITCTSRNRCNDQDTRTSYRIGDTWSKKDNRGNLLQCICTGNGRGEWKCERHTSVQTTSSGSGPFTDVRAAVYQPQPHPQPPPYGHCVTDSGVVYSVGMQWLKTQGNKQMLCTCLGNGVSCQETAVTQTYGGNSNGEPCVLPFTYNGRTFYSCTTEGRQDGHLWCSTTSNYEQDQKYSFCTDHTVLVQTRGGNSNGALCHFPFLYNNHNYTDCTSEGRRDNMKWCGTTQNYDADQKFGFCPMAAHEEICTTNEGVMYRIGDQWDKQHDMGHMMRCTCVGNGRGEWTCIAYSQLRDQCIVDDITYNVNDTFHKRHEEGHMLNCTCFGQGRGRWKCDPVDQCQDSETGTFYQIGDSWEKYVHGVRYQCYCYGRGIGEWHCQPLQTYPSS
Briefly: equilibrium and kinetic binding.

For experiment [13], the target named is T1, intact human plasma fibronectin (FN). The experiment in a line: equilibrium binding to FN adsorbed to a surface or coupled to agarose beads.
The target of experiment [14] is T8, FNIII12-15 (H), heparinII-binding domain of fibronectin (human, UniProt P02751-10 1631-1987).
T8 construct: domain: FNIII12-15; Recombinant
Briefly: binding to FN functional domains.

Experiment [15] concerns the target T9, FNIII2 (human, UniProt P02751 722-812, limits assumed).
T9 construct: domain: FNIII2; Recombinant
Briefly: binding to FN functional domains.

Experiment [16] deals with B1. The experiment in a line: binding to FN functional domains.
The target in experiment [17] is T10, FNIII1-11 (human, UniProt P02751-8 610-1630).
T10 construct: domain: FNIII1-11; Recombinant
The experiment in a line: binding to FN functional domains.

For experiment [18], the target named is T11, FNIII1 (human, UniProt P02751 610-702, limits assumed).
T11 construct: domain: FNIII1; Recombinant; also called FNIIII [sic]
T11 sequence (P02751 other isoform, or with tags, fused parts or gaps limits assumed): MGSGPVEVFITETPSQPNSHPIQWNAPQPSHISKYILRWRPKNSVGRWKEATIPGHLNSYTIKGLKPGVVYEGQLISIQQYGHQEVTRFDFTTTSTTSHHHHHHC
The experiment in a line: binding to FN functional domains.

The target in experiment [19] is T12, FNIII1-2 (human, UniProt P02751 610-812, limits assumed).
T12 construct: domain: FNIII1-2; Recombinant
T12 sequence (P02751 other isoform, or with tags, fused parts or gaps limits assumed): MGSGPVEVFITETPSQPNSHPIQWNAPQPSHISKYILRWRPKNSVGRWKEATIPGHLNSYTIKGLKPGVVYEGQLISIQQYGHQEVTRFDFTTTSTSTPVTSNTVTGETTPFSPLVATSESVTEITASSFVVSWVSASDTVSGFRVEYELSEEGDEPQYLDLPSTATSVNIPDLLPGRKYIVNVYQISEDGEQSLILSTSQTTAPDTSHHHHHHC
The experiment in a line: binding to FN functional domains.

Experiment [20] addresses T13, FNIII12-14 (human, UniProt P02751 1812-2082).
T13 construct: domain: FNIII12-14; Recombinant
The experiment in a line: binding to FN functional domains.

Experiment [21] concerns the target T1, intact human plasma fibronectin (FN). The experiment in a line: competition: I-125 PDGF-BB bound to intact human plasma FN adsorbed on plastic (0.125 µM, blocked with 2% BSA), 25°C, 2 h, with rising peptide; % of binding without peptide, n=3 [right panel]. The method, then:
as §1, §2

T2 sequence (P09038 143-288 limits assumed): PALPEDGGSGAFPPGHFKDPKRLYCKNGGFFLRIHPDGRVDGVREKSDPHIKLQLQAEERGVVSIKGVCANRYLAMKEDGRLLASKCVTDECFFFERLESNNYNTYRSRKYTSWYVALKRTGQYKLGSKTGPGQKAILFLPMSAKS
T13 sequence (P02751 other isoform, or with tags, fused parts or gaps limits assumed): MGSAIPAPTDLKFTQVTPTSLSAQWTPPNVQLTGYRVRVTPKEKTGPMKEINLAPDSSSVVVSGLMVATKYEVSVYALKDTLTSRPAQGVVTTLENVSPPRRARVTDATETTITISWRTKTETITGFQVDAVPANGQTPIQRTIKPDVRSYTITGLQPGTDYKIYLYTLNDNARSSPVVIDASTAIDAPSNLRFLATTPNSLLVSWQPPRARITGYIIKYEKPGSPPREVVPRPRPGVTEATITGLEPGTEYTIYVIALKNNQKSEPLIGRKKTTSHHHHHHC
T9 sequence (P02751 other isoform, or with tags, fused parts or gaps limits assumed): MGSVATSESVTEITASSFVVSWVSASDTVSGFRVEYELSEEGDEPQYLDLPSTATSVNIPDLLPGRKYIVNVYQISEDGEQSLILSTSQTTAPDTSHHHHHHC
T5 sequence (P02751 other isoform, or with tags, fused parts or gaps limits assumed): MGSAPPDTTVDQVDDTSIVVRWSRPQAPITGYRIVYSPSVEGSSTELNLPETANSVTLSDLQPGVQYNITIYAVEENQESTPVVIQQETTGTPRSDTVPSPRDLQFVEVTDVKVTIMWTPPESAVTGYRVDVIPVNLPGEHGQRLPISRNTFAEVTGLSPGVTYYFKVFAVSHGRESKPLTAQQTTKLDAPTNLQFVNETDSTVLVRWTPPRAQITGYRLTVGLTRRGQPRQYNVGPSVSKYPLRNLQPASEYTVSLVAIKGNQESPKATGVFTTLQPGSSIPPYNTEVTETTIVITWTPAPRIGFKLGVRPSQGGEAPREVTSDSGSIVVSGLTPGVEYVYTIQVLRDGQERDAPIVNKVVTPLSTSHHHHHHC

Turning to CCVRQLYIDFRKDLG [synthetic peptide homologous to TGF-β1, CCVRQLYIDFRKDLG], the “IC50 (read off the curve)” value in [1] is roughly 8000 nM.

As for B1, the binding result in experiment [2] is reported as “no binding”. Besides, the Kd in experiment [3] was roughly 100 nM; in [4] it was 58 nM.

B2: the binding result was “no binding” in [5], “no binding” in experiment [2], “no binding” in [6] and “binds” in experiment [7].

As for QPSVGQQMIFEEHGFRRTTPPTTAT (also called P4) [peptide 4 (FN2043-2067) QPSVGQQMIFEEHGFRRTTPPTTAT], the binding result in experiment [5] was “no binding”; in experiment [2], “no binding”; in experiment [6] it was “no binding”; in [7] it was “binds”.

QLISIQQYGHQEVTRFDFTTTSTST (also called P2) [peptide 2 (FN680-704) QLISIQQYGHQEVTRFDFTTTSTST]: the binding result in experiment [5] is given as “no binding”; in experiment [2] it was “no binding”; in experiment [6], “no binding”; in experiment [7] it was “binds”.

Regarding B3, the binding result in experiment [8], in [9], in experiment [10], in experiment [11], in [12] and in [13] was “no binding” throughout. In addition, the binding result in [14], in [15], in experiment [16], in experiment [17], in experiment [18] and in experiment [19] was “no binding” each time. Also, the binding result in experiment [20] is on record as “no binding”.

In the case of CKTRTEVFEISRRLI [synthetic peptide homologous to PDGF-BB, CKTRTEVFEISRRLI], the binding result in [21] was “binds”.

Consider B4, for which the binding result in experiment [5] was “no binding”; in [2], “no binding”; in experiment [6], “no binding”; in experiment [7] it was “binds”.

A word on the Kd: it is the concentration at which binding is half-saturated. A higher Kd goes with weaker binding.

(Values after patent US8759300 (RESEARCH FOUNDATION FOR THE STATE UNIVERSITY OF NEW YORK, dated 2014).)
